Columns and labels:
[1] = target: T1, mutant staphylococcal protein A (SpA5) (Staphylococcus aureus, recombinant …, point mutant); assay: BLI; Octet RED96, room temperature, PBS with 0.01% Tween 20; Abs-9 (8 ug/mL) loaded on Pro A biosensor; SpA5 in double dilutions 53 uM to 6.63 uM, 600 s association, 600 s dissociation; conditions: both partners purified
T1 construct: staphylococcal protein A, mutant 'pentameric form' (SpA5), component of the recombinant five-component S. aureus vaccine; The residue numbers printed for SpA5 (E790 to N893) come from the docked model; also called antigen SpA5; pentameric form of S. aureus protein A; source: recombinant antigenic protein (vaccine component of rFSAV)

KLH-(N847-S857) = target: T2, KLH-(N847-S857) (Staphylococcus aureus, protein A …); assay: ELISA; KLH-(N847-S857) coated at 2 ug/mL; Abs-9 from 2 ug/mL in PBST, diluted in half; 37 C 1 h; goat anti-human IgG Fc-HRP, OD450; SpA5 positive control, KLH negative control; conditions: both partners purified
T2 construct: stretch N847-S857 of SpA5; they were put together from the eleven consecutive residues in the docking list; also called synthetic peptide N847-S857; source: synthetic peptide, coupled to keyhole limpet hemocyanin (KLH)
T2 chain: NEEQRNGFIQS

[2] = target: T3, S. aureus protein A in MRSA252 bacterial fluid (Staphylococcus aureus MRSA252 (stand-in …, UniProt P02976, strain)); assay: affinity purification with mass spectrometry; supernatant of ultrasonically fragmented MRSA252 incubated overnight with Abs-9 (200 uL, 8 mg/mL), bound to Protein A beads 2 h, eluate to mass spectrometry; conditions: one partner purified
T3 construct: staphylococcal protein A as it is present in strain MRSA252; The lysate of MRSA252 can hold only the native protein A, not the recombinant mutant SpA5; also called SpA; source: endogenous, MRSA252 ultrasonically fragmented and centrifuged, supernatant

B1: human antibody Abs-9 (antibody, V domains shown)
VH: QVQLQQWGAGLLKPSETLSLTCAVYGGSFSGYYWSWIRQPPGKGLEWIGEINHSGSTNYNPSLKSRVTISVDTSKNQFSLKLSSVTAADTAVYYCARRSYGVKPFDYWGQGTLVTVSS
VL: SSELTQDPAVSVALGQTVRITCQGDSLRTYYASWYQQKPGQAPALVIYGKNNRPSGIPDRFFGSSSGNTASLTITGAQAEDEADYYCNSRDSSGNHHPVFGGGTKLTVL
notes: germline VH3-48 gene; also called IgG-9; source: 293F cells, transfected (heavy and light chain plasmids, PEI), purified from supernatant on Protein A beads
With B1 the Kd [1] was 1.96 nM, the koff [1] was 5.63e-07 s⁻¹ and the binding result (KLH-(N847-S857)) was “binds”. B1: binds [2].
